Results from publication PMC3343632 (Nature cell biology, 2012).

Target: the molecule itself
Assay: single-molecule TIRF microscopy with stepwise photobleaching

B1: GFP-tagged tailless kinesin-1 motor, taillessKhc::GFP (1-849) (domain or fragment, UniProt P17210 1-849, looked up)
chain: MSAEREIPAEDSIKVVCRFRPLNDSEEKAGSKFVVKFPNNVEENCISIAGKVYLFDKVFKPNASQEKVYNEAAKSIVTDVLAGYNGTIFAYGQTSSGKTHTMEGVIGDSVKQGIIPRIVNDIFNHIYAMEVNLEFHIKVSYYEIYMDKIRDLLDVSKVNLSVHEDKNRVPYVKGATERFVSSPEDVFEVIEEGKSNRHIAVTNMNEHSSRSHSVFLINVKQENLENQKKLSGKLYLVDLAGSEKVSKTGAEGTVLDEAKNINKSLSALGNVISALADGNKTHIPYRDSKLTRILQESLGGNARTTIVICCSPASFNESETKSTLDFGRRAKTVKNVVCVNEELTAEEWKRRYEKEKEKNARLKGKVEKLEIELARWRAGETVKAEEQINMEDLMEASTPNLEVEAAQTAAAEAALAAQRTALANMSASVAVNEQARLATECERLYQQLDDKDEEINQQSQYAEQLKEQVMEQEELIANARREYETLQSEMARIQQENESAKEEVKEVLQALEELAVNYDQKSQEIDNKNKDIDALNEELQQKQSVFNAASTELQQLKDMSSHQKKRITEMLTNLLRDLGEVGQAIAPGESSIDLKMSALAGTDASKVEEDFTMARLFISKMKTEAKNIAQRCSNMETQQADSNKKISEYEKDLGEYRLLISQHEARMKSLQESMREAENKKRTLEEQIDSLREECAKLKAAEHVSAVNAEEKQRAEELRSMFDSQMDELREAHTRQVSELRDEIAAKQHEMDEMKDVHQKLLLAHQQMTADYEKVRQEDAEKSSELQNIILTNERREQARKDLKGLEDTVAKELQTLHNLRKLFVQDLQQRIRKNVVNEESEEDGGSLA
- stoichiometry N: 2
